From the DeepSol protein solubility set

Assay: soluble on expression in E. coli; label from the status in PepcDB or PDB records

Sequence | soluble on expression in E. coli
MDEFGSLLGDSPRSSVNNWEKGVSIPKRDKLEKIAILGNMLPDQILYGRADEYLYDLIDSSFNVKFSDNILYEIFESVPPEKRSYDDLMWLAVAKYFIDNGTYGKVVGKFNYISMLGIPNLYTGSYQNEFIEQREDYKQQEVKYYVYADPEKNILHIMPFVPNEKNIELLYEFPELLEQQADHEVFTANFEQIGLTLKGSTIVYYGIDKQKLEAKTQAYKYDEAVDLYRIAQLPETLSMFDDEIQKQISFLKSK | not soluble
MERAESSSTEPAKAIKPIDRKSVHQICSGQVVLSLSTAVKELVENSLDAGATNIDLKLKDYGVDLIEVSDNGCGVEEENFEGLTLKHHTSKIQEFADLTQVETFGFRGEALSSLCALSDVTISTCHASAKVGTRLMFDHNGKIIQKTPYPRPRGTTVSVQQLFSTLPVRHKEFQRNIKKEYAKMVQVLHAYCIISAGIRVSCTNQLGQGKRQPVVCTGGSPSIKENIGSVFGQKQLQSLIPFVQLPPSDSVCEEYGLSCSDALHNLFYISGFISQCTHGVGRSSTDRQFFFINRRPCDPAKVCRLVNEVYHMYNRHQYPFVVLNISVDSECVDINVTPDKRQILLQEEKLLLAVLKTSLIGMFDS | soluble
MMGRGKLILIEGLDRTGKTTQCNILYKKLQPNCKLLKFPERSTRIGGLINEYLTDDSFQLSDQAIHLLFSANRWEIVDKIKKDLLEGKNIVMDRYVYSGVAYSAAKGTNGMDLDWCLQPDVGLLKPDLTLFLSTQDVDNNAEKSGFGDERYETVKFQEKVKQTFMKLLDKEIRKGDESITIVDVTNKGIQEVEALIWQIVEPVLSTHIDHDKFSFF | soluble
MSFSKLLDLLTGREAQRTAIDWDAKYGTDTRSTVELHGLTISHDSRRFGERYQASDPSALSDALAFVGLDPRSYRFVDLGCGKGRMLIVAAELGFKSCIGVEFADELAQTAKANAAAAGFDTISVVHGDAGAYAFQDEPFVLYLFNPFSHQIMQRVRDNLLKLRRAEYYVIYKNPRERRIFDEMQTLRYLGTPPAHKGVWGVHVWGPRGELEHHHHHH | not soluble
MRQSISNDVATISRISAVPAILQVITESTGLGFAAVARVTEDSWTACAVLDNLGFGLKPGGELELISTICHEIRASHKPVVIDHVAEDELFCAHHTPRRYNFQSYISIPIFLTDGSFFGTICALDPKPAKLTGTPIEAMMVSFARLLALQIEAEENMQRVQ | not soluble
MVKSVLCFGDSLTWGSNAETGGRHSHDDLWPSVLQKALGSDVHVIHEGLGGRTTAYDDHTGDCDRNGARLLPTLLHSHAPLDMVIIMLGTNDMKPAIHGSAIVAMKGVERLVKLTRNHVWQVSDWEAPDVLIVAPPQLCETANPFMGAIFRDAIDESAMLASVYRDLADELDCGFFDAGSVARTTPVDGVHLDAENTRAIGRGLEPVVRMMLGL | soluble
MGSTRWDAVNKFSVENWYPHLRKHTFKSHFITLNYNDIHYLMGNIPPDYDSSKLESIFNKILSEFNNKEVFMRLSTRSPKDSKFLFEEASTIMSKDFVYWNENDNKHQQLVSFVASMLKAMKIKSGRKIIETIAQSPRVYNDLLALVSSSNQSDCTTNVILREWHDIRPDHEFRVFVSRRHRKESIVTAISQYFHFLYFDKSPADCFNFLDEEDKKAVIKKFENYVLKSVDPDVAKFLNFSSEQDDDESSDCIREYIVDLALIPVSQYHGEITDENIIEIGANTYVMVVIELNPFAPAATGSGLFNWKNDLMMLWGKASCDYPVFKYRTTPREDLQSVSLLPSNYESVIKSALIKRLETSYSNSASQKERFFSSTKPVTESSGSALLDMVTKPLEHHHHHH | soluble
LQQQEEETYADACDEFLDPIMSTLMCDPVVLPSSRVTVDRSTIARHLLSDQTDPFNRSPLTMDQIRPNTELKEKIQRWLAERKQQ | soluble
MSLDWTCKHHADLTLKELYALLQLRTEVFVVEQKCPYQEVDGLDLVGDTHHLMAWRDGQLLAYLRLLDPVRHEGQVVIGRVVSSSAARGQGLGHQLMERALQAAERLWLDTPVYLSAQAHLQAYYGRYGFVAVTEVYLEDDIPHIGMRRA | soluble
MGSDKIHHHHHHMIVNQANLQGIYKSFNTIFNQAFDAAPSQWPLVAMQVPSTGRSVDYKWLGDFPMMREWLGDRVLKDLSAFKYEITNKDYESTIEVDRNDIDDDQIGVYTPMIQGLAQAAKVHPDILVFALLKAGFDTGCFDGQYFFDSDHSVNGASVSNTGGGDGTPWYLLDLSRPIKPIVLQIRKRPQFVAMDKPDDENVFMRKKFRYGVDDRKNVGYGLWQLAYGSKQTLDATNYAAARAAMMAFTNDEGVPLGITPTHLVVPPTLESNGRTVVEAQFDANGASNVWYNTAKLVVVPWLA | not soluble
MGSDKIHHHHHHMYPNLTSEQALLILQSARNPDKAYDLFAQAAEVRDKVFGKRLWWSSGSGGIFPCLVKPRCSYCTYYTEKLFPTDVLLTGLELIESLGIQQFHISGGTDLDEGYDEQLLELVQAIKTRSGLKLEINLGPSFRQETVLELKKLGIDSVTSSLECNTPAIFARAKPGDSLERRRELLHHCEEADMPSRSMMLLGLGETDQERIEHLFYLQQFKKLYQLRLSRFMPFPGTLYKDRSRCSPWDTALITAMARLILPNLEISLAAGNSNDDIPLWYLAGGGSQLLGVSITRKEPPATPDVDVYAIGEGAYVVDKRQQVARVLEGMNLEVTCEMPDYRALQSQF | not soluble
MSRRLPPLNSLRVFEAAARHLSFTRAAEELFVTQAAVSHQIKALEEFLGLKLFRRRNRSLLLTEEGQSYFLDIKEIFSSLSEATDKVLERSAKGALTISLPPSFAIQWLVPRLSDFNNQEPDIDVRIKAVDMDEGSLTEDVDVAIYYGRGNWPGLRVELLYQEQLLPLCSPQVLLNEKPLATIDDLRFHTLLHDTSRKDWKQFVKHYELAGMNVNQGPIFSHSTMVLQAAAHGQGIALGNNVLAQPELDAGRLVAPFEEVLVSKNAFYLVCNEKQADTGRIATFREWILSKARSEQEIVDDE | soluble
MVKKLYIKTNGCQMNEYDSSKMAEVLYASHGLVKTDQVEDADVILLNTCSIREKAQEKVFSQLGQWREYKAKNPHVLIGVGGCVASQEGSDIIKRAPFVDIVFGPQTLHRLPALLNERLEKNKSVVDISFPEIEKFDHLPAPRAEGPTAFVSIMEGCSKYCSFCVVPYTRGEEISRPFDDVLAECYQLASQGVREINLLGQNVNDYRGIMDNGDIADLALLIHYIAAIDGIGRIRFTTSHPLAFSENLINAYAEVPELANHLHLPVQSGSDRILSLMKRGYTALEFKSKIRKLRKIRPDIRLSTDIIVGFPGETDKDFQDTMDLVHEIGFDTSFSFIYSPRPGTPAANLPDDTPMEIKKQRLQILQNRLLMNAARYSESMIGSKQKILVTGFSKKSSQQLSGRTECNRVVNFDGPPHLIGQFIDVQISDALPNSLRGRLLEKEMQPALEHHHHHH | soluble
MSLTSQPREQFLLISALGPNPMELTTLLCRACVESRCAVVSSRLTRHGEFSALVLQISGSWDALARLEGSLPALTKRGDITLSMTRSNAHVTRAQALPYVAYVSAVYRPDILNELCQFFIDHNIELENLTCDTYQAPHTNTTMLNATITVTLPAGTQISWLRDQFLDFADALNLDALIEPWREGGSHHHHHH | soluble
TPYDPLTLWTTPDPPPNCSLIQELDAKLTLCLTKNGSIVNGIVSLVGVKGNLLNIQSTTTTVGVHLVFDEQGRLITSTPTALVPQASWGYRQGQSVSTNTVTNGLGFMPNVSAYPRPNASEAKSQMVSLTYLQGDTSKPITMKVAFNGITSLNGYSLTFMWSGLSNYINQPFSTPSCSFSYITQE | soluble
EQAPQYVDETISLSAKTLFGFDKDSLRAEAQDNLKVLAQRLSRTNIQSVRVEGHTDFMGSDKYNQALSERRAYVVANNLVSNGVPVSRISAVGLGESQAQMTQVCEAEVAKLGAKVSKAKKREALIACIEPDRRVDVKIRSIVTRQVVPAHNHHQHLEHHHHHH | soluble
MDALKLLTNRRSSKKLKHPAPDAAELEQIFQAATQVPDHGNMRPFRFTVIQGEVGLQRFRDVLKQTVAELNFGDDAMKKAEKVGNMAPMVIGVTFAPNRDVPKPKPEWEQMLTAGCAAYALQLAATAQGFDNVWITGMWVNSPLLREAFGCADKDKIIGLMMVGTPTEEVHKPKNTDLEAFVSHW | not soluble
MPLSWPPEQFAFALEQMPLTENNRRILQAFLDAPEQTLTAHSLAAAANVAGGWSAANLRIGELSRKFAPVLGSLPDAGDGDPHWWRYIASGRWDGGRFYWTLRPQLKDALLTLGWQSSESLDNEAEGVSAEEARTFVEGATRQIFVNAYERNAGARAACIAHFGTVCRVCETDLVAIYGEVARGYIQVHHLRSLAEVGRQYEVNPLTDLIPVCPNCHAMLHQRRPAYTPEELRAMLGRGQHLEHHHHHH | not soluble
MHPLLRRLDLNLLLVFDALYRHRNVGTAASELAISASAFSHALGRLRQGLDDELFLRQGNRMQPTQRAEHLAAAVAAALRALGEGLEEWRPFVPGQSQRTFVFAATDYTAFALLPPLMNRLQHSAPGVRLRLVNAERKLSVEALASGRIDFALGYDEEHERLPEGIQAHDWFADRYVVVARRDHPRLAGAPTLEGYLAERHAVVTPWNEDSGVIDRLLARSGLRREVAVQLPTVLAALFLAGSTDFLLTAPRHAARALAEAAGLALYPAPFDIPPYVLRLYSHVQHVGRDAHAWMIGQLKGLDISRTG | soluble
MGSDKIHHHHHHMPSIENMIAWMQARKGKVTYSMTSRMGPNSYDCSSSIFFAMIAGGFLSAGSMGNTETLFGMSGTKLKEISRGEVQRGDVFISGTPGGSAGSDGHTGIFLSNGSFIHCSYTHNGIAVDTNDAYMSTRLPHHFYRIVGSGSGNTDNKPQMVTLNVDGQFGNATAKRLQEYFDTAGKDGVISHQYKQTFNQNIYAAQFDSSLTGSNVVKALQRFLGIGQDGLFGQGTIKALQKHLGTTQDGTISPVSDSVRELQRRLNANKL | not soluble
MGSDKIHHHHHHMATNSSTEQSLTKKVWNLATTLAGQGIGFTDYITQLTYLLFLKMDAENVEMFGEESAIPTGYQWADLIAFDGLDLVKQYEETLKLLSELDNLIGTIYTKAQNKIDKPVYLKKVITMIDEEQWLIMDGDVKGAIYESILEKNGQDKKSGAGQYFTPRPLIQAMVDCINPQMGETVCDPACGTGGFLLTAYDYMKGQSASKEKRDFLRDKALHGVDNTPLVVTLASMNLYLHGIGTDRSPIVCEDSLEKEPSTLVDVILANPPFGTRPAGSVDINRPDFYVETKNNQLNFLQHMMLMLKTGGRAAVVLPDNVLFEAGAGETIRKRLLQDFNLHTILRLPTGIFYAQGVKANVLFFSKGQPTKEIWFYDYRTDIKHTLATNKLERHHLDDFVSCYNNRVEIYDAENNPQGRWRKYPVDEIIARDKTSLDITWIKPGGEVDDRSLAELMADIKDKSQTISRAVTELEKLLANIEEN | not soluble
NKDMALTVRGNFTHAENEVIYWEQSGVNYPYQSNSGVPYKVQRGLIALGLFKDEDDIKSSPKQTFMDNYRPGDIKYKDVNGDGKIDKDDVVPLNYSAVPFIQYGFALDWNYKAFRVSILFEGVSKVQYFQGGRGFYPFLNESRGNLLEMVADPRNRWIPREYAEVNGIDPALAENPNAKFPRLTYGENKNNNQESTFWLADGKYLRLKNVDVSYRFTNNWLKSRVGVESATLSLIGENLHVWDKVKLFDPSQASGNGAEYPLQRMYTLQLNLTF | not soluble
MISHSELRKLFYSADAVCFDVDSTVIREEGIDELAKICGVEDAVSEMTRRAMGGAVPFKAALTERLALIQPSREQVQRLIAEQPPHLTPGIRELVSRLQERNVQVFLISGGFRSIVEHVASKLNIPATNVFANRLKFYFNGEYAGFDETQPTAESGGKGKVIKLLKEKFHFKKIIMIGDGATDMEACPPADAFIGFGGNVIRQQVKDNAKWYITDFVELLGELEE | soluble
